Concentration of peptide data for 1 molecule are collected here from patent publication US6949357.

This experiment deals with rabbit polyclonal antiserum against the BL172 synthetic peptide of SEQ ID NO: 20. The experiment in a line: competition Western blot; antiserum pre-incubated overnight at 4 C with varying concentrations of peptide immunogen.

Molecule TQTCGNCTFRVCFEQCCPWTFMVKLINQNCD [BL172 synthetic peptide of SEQ ID NO: 20] returned a concentration of peptide at which antibody binding to the band was inhibited of 2.9 µM.
